Reference: US20140193417A1 (LUDWIG INSTITUTE FOR CANCER RESEARCH, published 2014)

Tests used:
[1] = biological target: T1, T330M variant 312-340 peptide (SLC34A p312-340 T330M) (human); assay: dot blot
T1 construct: also called T330M P312-340 peptide
T1 peptide: SPSLCWMDGIQNWTM
Description: Corut et al have studied and identified mutations in SLC34A2 that are predicted to cause pulmonary alveolar microlithiasis and are possibly also associated with testicular microlithiasis (Corut, A. et al (2006) AM J. Hum Genet. 79:650-656). While analyzing normal controls, Corut identified a novel variant c.989C-T (p. T330M), whereby threonine is replaced with methionine, substituting a polar residue with a non-polar residue. This is presumed to inactivate the SLC34A2 protein. This T330M mutation is located within the MX35 epitope peptide region of SLC34A2. […] While MX35, L2 and L3 antibodies bind p312-340 peptide SEQ ID NO: 8, none of these antibodies bind T330M P312-340 peptide by dot blot analysis.

[2] = biological target: T2, GST/NaPi2b-4L fusion protein (311-340aa) (human, UniProt O95436 311-340); assay: Western blot of truncated GST fusion proteins
T2 construct: Expressed in E. coli; not shown: glutathione S-transferase (GST) tag of vector pGEX4T1
T2 chain (looked up): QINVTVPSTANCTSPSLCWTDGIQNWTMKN

[3] = biological target: T3, NaPi2b 312-340 array peptide with Ala at 328, Ac-INVTVPSTANCTSPSLAWTDGIQNWTMKN-amide (human, N-terminal acetyl (Ac-), C-terminal amide); assay: synthetic peptide membrane array, 1 ug/ml antibody
T3 peptide: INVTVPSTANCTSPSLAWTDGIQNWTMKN
Description: (§1) For epitope mapping, membranes were incubated for 3 hours with 1 ug/ml primary antibody, followed by incubation with HRP-labeled goat anti-mouse polyclonal antibodies (Jackson ImmunoResearch Laboratories, West Grove, Pa.) for 2 hours. Bound antibody was visualized by chemiluminescence (Western Lightning Plus). For epitope mapping under reducing condition, membranes were incubated in 1 mM DTT for 1 hour at room temperature, and then washed extensively prior to antibody incubation.

[4] = biological target: T4, NaPi2b 317-340 array peptide Ac-PSTANCTSPSLCWTDGIQNWTMKN-amide (human, N-terminal acetyl (Ac-), C-terminal amide); assay: synthetic peptide membrane array, 1 ug/ml antibody
T4 peptide: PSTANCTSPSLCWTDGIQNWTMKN
Description: as §1

[5] = biological target: T5, NaPi2b 320-340 array peptide Ac-ANCTSPSLCWTDGIQNWTMKN-amide (human, N-terminal acetyl (Ac-), C-terminal amide); assay: synthetic peptide membrane array, 1 ug/ml antibody
T5 peptide: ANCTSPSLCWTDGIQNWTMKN
Description: as §1

[6] = biological target: T6, NaPi2b 323-340 array peptide Ac-TSPSLCWTDGIQNWTMKN-amide (human); assay: synthetic peptide membrane array, 1 ug/ml antibody
T6 peptide: Ac-TSPSLCWTDGIQNWTMKN-NH2
Description: as §1

[7] = biological target: T7, NaPi2b 312-340 array peptide Ac-INVTVPSTANCTSPSLCWTDGIQNWTMKN-amide (human, N-terminal acetyl (Ac-), C-terminal amide); assay: synthetic peptide membrane array, 1 ug/ml antibody
T7 peptide: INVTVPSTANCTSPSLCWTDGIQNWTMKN
Description: as §1

[8] = biological target: T8, NaPi2b 312-340 array peptide with Ala at 322, Ac-INVTVPSTANATSPSLCWTDGIQNWTMKN-amide (human, N-terminal acetyl (Ac-), C-terminal amide); assay: synthetic peptide membrane array, 1 ug/ml antibody
T8 peptide: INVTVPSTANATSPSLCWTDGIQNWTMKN
Description: as §1

[9] = biological target: T9, sodium-dependent phosphate transport protein 2b (NaPi2b, SLC34A2), human, endogenous (human, UniProt O95436 1-690); assay: mixed hemadsorption assay (MHA) on SK-RC-33 renal cancer cells
T9 construct: whole, on cells; Naturally expressed, N-glycosylated membrane protein of human cancer cell lines (OVCAR-3, SK-RC-18 and others) and tissues; used on intact cells (MHA, flow cytometry), in cell or tissue lysates (Western blot, immunoprecipitation) and in tissue sections; also called MX35 antigen; NaPi2b/MX35
T9 sequence (looked up): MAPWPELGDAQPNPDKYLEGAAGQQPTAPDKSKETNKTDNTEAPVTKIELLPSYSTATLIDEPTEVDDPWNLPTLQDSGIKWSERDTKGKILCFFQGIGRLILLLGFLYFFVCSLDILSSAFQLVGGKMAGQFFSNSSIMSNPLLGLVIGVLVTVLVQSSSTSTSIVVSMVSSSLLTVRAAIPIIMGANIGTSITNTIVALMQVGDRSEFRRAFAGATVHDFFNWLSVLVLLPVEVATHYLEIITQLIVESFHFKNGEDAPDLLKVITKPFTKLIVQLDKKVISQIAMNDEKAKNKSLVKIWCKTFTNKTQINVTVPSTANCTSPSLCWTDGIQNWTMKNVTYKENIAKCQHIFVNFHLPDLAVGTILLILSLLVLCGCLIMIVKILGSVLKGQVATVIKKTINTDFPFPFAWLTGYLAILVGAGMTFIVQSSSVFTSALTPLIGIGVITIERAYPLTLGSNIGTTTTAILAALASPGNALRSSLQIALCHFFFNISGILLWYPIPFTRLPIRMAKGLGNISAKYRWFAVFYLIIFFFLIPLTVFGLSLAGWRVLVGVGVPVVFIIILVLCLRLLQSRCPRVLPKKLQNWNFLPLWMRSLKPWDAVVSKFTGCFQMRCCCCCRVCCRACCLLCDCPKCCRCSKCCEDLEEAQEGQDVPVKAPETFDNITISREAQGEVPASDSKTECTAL
Description: A panel of cancer cell lines was co-typed for SLC34A2 mRNA expression by RT-PCR and for cell surface expression of MX35 protein antigen in a mixed hemadsorption assay (MHA) using mAb MX35 as probe. In addition, cell lysates were probed by Western blot analysis for MX35 expression. A panel of cancer cell lines with known expression of MX35 antigen was included. Strong expression of SLC34A2 mRNA correlated with MX35 antigen cell surface expression in all cells analyzed (Table 1). No such correlation was found for the Zinc-finger protein 638 (data not shown).

Measured: binding result

B1: Murine mAb MX35 (IgG1) (antibody, V domains shown)
VH: QVQLKQSGAELVKPGASVKMSCKASGYTFTGYNIHWVKQTPGQGLEWIGAIYPGNGDTSYKQKFRGKASLTADTSSSTVYMQLSSLTSEDSAVYYCARGETARATFAYWGQGTLVTVSA
VL: DIQMTQTTSSLPASLGDRVTISCSASQDIGNFLNWYQQKPDGTVKVLIYYTSSLYSGVPSRFSGSGSGTDYSLTISNLEPEDIATYYCQQYSKLPLTFGAGTKLELKR
notes: also called MX35 MAb; monoclonal antibody MX35
no binding: [1]
binds: all other assays above
